{
  "source": "patent US20150329594A1",
  "about": "(University of California, published 2015)",
  "binders": {"B1": {"name": "Peptide VIII, Ac-SS-RCVme…-NH2 (peptide)", "peptide": "Ac-SSRCV[Trp(1-Me)]QDWGAHRCT-NH2", "modifications": "disulfide 4-14", "SMILES": "CC(=O)N[C@@H](CO)C(=O)N[C@@H](CO)C(=O)N[C@@H](CCCNC(=N)N)C(=O)N[C@H]1CSSC[C@@H](C(=O)N[C@H](C(N)=O)[C@@H](C)O)NC(=O)[C@H](CCCNC(=N)N)NC(=O)[C@H](Cc2c[nH]cn2)NC(=O)[C@H](C)NC(=O)CNC(=O)[C@H](Cc2c[nH]c3ccccc23)NC(=O)[C@H](CC(=O)O)NC(=O)[C@H](CCC(N)=O)NC(=O)[C@H](Cc2cn(C)c3ccccc23)NC(=O)[C@H](C(C)C)NC1=O"}, "B2": {"name": "Peptide IV, Ac-SS-ICVWQDWGAHRCT-NH2 (peptide)", "peptide": "Ac-SSICVWQDWGAHRCT-NH2", "modifications": "disulfide 4-14", "SMILES": "CC[C@H](C)[C@H](NC(=O)[C@H](CO)NC(=O)[C@H](CO)NC(C)=O)C(=O)N[C@H]1CSSC[C@@H](C(=O)N[C@H](C(N)=O)[C@@H](C)O)NC(=O)[C@H](CCCNC(=N)N)NC(=O)[C@H](Cc2c[nH]cn2)NC(=O)[C@H](C)NC(=O)CNC(=O)[C@H](Cc2c[nH]c3ccccc23)NC(=O)[C@H](CC(=O)O)NC(=O)[C@H](CCC(N)=O)NC(=O)[C@H](Cc2c[nH]c3ccccc23)NC(=O)[C@H](C(C)C)NC1=O"}, "B3": {"name": "Peptide V, Ac-WW-RCVWQDWGAHRCT-NH2 (peptide)", "peptide": "Ac-WWRCVWQDWGAHRCT-NH2", "modifications": "disulfide 4-14", "SMILES": "CC(=O)N[C@@H](Cc1c[nH]c2ccccc12)C(=O)N[C@@H](Cc1c[nH]c2ccccc12)C(=O)N[C@@H](CCCNC(=N)N)C(=O)N[C@H]1CSSC[C@@H](C(=O)N[C@H](C(N)=O)[C@@H](C)O)NC(=O)[C@H](CCCNC(=N)N)NC(=O)[C@H](Cc2c[nH]cn2)NC(=O)[C@H](C)NC(=O)CNC(=O)[C@H](Cc2c[nH]c3ccccc23)NC(=O)[C@H](CC(=O)O)NC(=O)[C@H](CCC(N)=O)NC(=O)[C@H](Cc2c[nH]c3ccccc23)NC(=O)[C@H](C(C)C)NC1=O"}, "B4": {"name": "Peptide VII, Ac-RS-RCVme…-NH2 (peptide)", "peptide": "Ac-RSRCV[Trp(1-Me)]QDWGAHRCT-NH2", "modifications": "disulfide 4-14", "SMILES": "CC(=O)N[C@@H](CCCNC(=N)N)C(=O)N[C@@H](CO)C(=O)N[C@@H](CCCNC(=N)N)C(=O)N[C@H]1CSSC[C@@H](C(=O)N[C@H](C(N)=O)[C@@H](C)O)NC(=O)[C@H](CCCNC(=N)N)NC(=O)[C@H](Cc2c[nH]cn2)NC(=O)[C@H](C)NC(=O)CNC(=O)[C@H](Cc2c[nH]c3ccccc23)NC(=O)[C@H](CC(=O)O)NC(=O)[C@H](CCC(N)=O)NC(=O)[C@H](Cc2cn(C)c3ccccc23)NC(=O)[C@H](C(C)C)NC1=O"}, "B5": {"name": "Peptide 3.1, Ac-ER-ICVWQDWGAHRCT-NH2 (peptide)", "peptide": "Ac-ERICVWQDWGAHRCT-NH2", "modifications": "disulfide 4-14", "SMILES": "CC[C@H](C)[C@H](NC(=O)[C@H](CCCNC(=N)N)NC(=O)[C@H](CCC(=O)O)NC(C)=O)C(=O)N[C@H]1CSSC[C@@H](C(=O)N[C@H](C(N)=O)[C@@H](C)O)NC(=O)[C@H](CCCNC(=N)N)NC(=O)[C@H](Cc2c[nH]cn2)NC(=O)[C@H](C)NC(=O)CNC(=O)[C@H](Cc2c[nH]c3ccccc23)NC(=O)[C@H](CC(=O)O)NC(=O)[C@H](CCC(N)=O)NC(=O)[C@H](Cc2c[nH]c3ccccc23)NC(=O)[C@H](C(C)C)NC1=O"}, "B6": {"name": "Peptide 3.2, Ac-NN-LCVWQDWGAHRCT-NH2 (peptide)", "peptide": "Ac-NNLCVWQDWGAHRCT-NH2", "modifications": "disulfide 4-14", "SMILES": "CC(=O)N[C@@H](CC(N)=O)C(=O)N[C@@H](CC(N)=O)C(=O)N[C@@H](CC(C)C)C(=O)N[C@H]1CSSC[C@@H](C(=O)N[C@H](C(N)=O)[C@@H](C)O)NC(=O)[C@H](CCCNC(=N)N)NC(=O)[C@H](Cc2c[nH]cn2)NC(=O)[C@H](C)NC(=O)CNC(=O)[C@H](Cc2c[nH]c3ccccc23)NC(=O)[C@H](CC(=O)O)NC(=O)[C@H](CCC(N)=O)NC(=O)[C@H](Cc2c[nH]c3ccccc23)NC(=O)[C@H](C(C)C)NC1=O"}, "B7": {"name": "Peptide 3.3, Ac-NR-LCVWQDWGAHRCT-NH2 (peptide)", "peptide": "Ac-NRLCVWQDWGAHRCT-NH2", "modifications": "disulfide 4-14", "SMILES": "CC(=O)N[C@@H](CC(N)=O)C(=O)N[C@@H](CCCNC(=N)N)C(=O)N[C@@H](CC(C)C)C(=O)N[C@H]1CSSC[C@@H](C(=O)N[C@H](C(N)=O)[C@@H](C)O)NC(=O)[C@H](CCCNC(=N)N)NC(=O)[C@H](Cc2c[nH]cn2)NC(=O)[C@H](C)NC(=O)CNC(=O)[C@H](Cc2c[nH]c3ccccc23)NC(=O)[C@H](CC(=O)O)NC(=O)[C@H](CCC(N)=O)NC(=O)[C@H](Cc2c[nH]c3ccccc23)NC(=O)[C@H](C(C)C)NC1=O"}},
  "note": "Bridge positions count the residues as written; N and C are the ends. Square brackets hold non-standard residues; d marks the D form. Nal = 1-naphthylalanine or 2-naphthylalanine; Trp(1-Me) = Cn1cc(C[C@H](N)C(=O)O)c2ccccc21; Aal = not defined here; Sea = not defined here",
  "data": [
    {"target": "T1, human complement protein C3 (human, UniProt P01024 23-1663)", "T1 sequence (P01024 23-1663 limits assumed)": "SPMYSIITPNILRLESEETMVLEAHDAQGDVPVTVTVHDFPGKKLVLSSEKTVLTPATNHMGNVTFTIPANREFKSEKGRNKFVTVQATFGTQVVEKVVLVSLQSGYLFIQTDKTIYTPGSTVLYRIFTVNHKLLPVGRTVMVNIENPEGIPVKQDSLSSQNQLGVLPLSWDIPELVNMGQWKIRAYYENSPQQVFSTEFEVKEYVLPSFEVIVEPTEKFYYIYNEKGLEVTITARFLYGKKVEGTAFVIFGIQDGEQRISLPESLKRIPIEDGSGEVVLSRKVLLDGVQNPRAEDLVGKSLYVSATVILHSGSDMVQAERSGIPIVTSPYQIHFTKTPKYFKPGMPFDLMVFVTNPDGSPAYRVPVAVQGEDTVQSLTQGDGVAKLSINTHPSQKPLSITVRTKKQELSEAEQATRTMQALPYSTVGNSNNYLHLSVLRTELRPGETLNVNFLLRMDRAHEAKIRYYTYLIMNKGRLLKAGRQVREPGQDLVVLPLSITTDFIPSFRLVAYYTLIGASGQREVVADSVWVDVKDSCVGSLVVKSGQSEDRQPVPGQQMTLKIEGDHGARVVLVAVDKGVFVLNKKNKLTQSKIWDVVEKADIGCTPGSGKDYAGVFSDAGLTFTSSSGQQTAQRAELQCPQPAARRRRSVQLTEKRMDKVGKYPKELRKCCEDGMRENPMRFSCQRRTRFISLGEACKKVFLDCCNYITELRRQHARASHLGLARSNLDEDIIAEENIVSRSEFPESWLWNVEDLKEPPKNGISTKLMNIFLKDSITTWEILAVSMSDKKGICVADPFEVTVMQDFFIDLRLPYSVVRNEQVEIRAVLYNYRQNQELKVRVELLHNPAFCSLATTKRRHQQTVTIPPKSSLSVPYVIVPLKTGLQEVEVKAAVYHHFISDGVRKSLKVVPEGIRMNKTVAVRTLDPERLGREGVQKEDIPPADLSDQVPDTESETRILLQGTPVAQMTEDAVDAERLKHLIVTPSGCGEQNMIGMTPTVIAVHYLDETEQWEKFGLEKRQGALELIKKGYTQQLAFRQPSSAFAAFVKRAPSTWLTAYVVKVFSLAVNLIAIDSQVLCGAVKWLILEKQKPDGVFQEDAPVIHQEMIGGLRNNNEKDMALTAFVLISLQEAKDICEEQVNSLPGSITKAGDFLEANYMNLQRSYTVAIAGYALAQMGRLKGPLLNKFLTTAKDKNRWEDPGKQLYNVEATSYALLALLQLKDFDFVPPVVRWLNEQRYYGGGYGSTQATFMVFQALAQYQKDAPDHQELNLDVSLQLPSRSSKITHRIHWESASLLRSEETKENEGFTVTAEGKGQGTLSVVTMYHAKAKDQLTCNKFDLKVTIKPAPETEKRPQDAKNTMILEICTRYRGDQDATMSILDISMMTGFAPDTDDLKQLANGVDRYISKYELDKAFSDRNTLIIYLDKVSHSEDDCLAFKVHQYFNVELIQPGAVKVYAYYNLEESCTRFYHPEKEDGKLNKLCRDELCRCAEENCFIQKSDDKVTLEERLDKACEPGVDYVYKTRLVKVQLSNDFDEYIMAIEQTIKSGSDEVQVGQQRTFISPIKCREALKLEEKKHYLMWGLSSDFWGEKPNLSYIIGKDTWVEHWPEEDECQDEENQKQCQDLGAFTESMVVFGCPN", "assay": "cell-based or functional assay", "units": {"IC50 (assay not named in Table 7; preliminary C3b ELISA by paragraph 235)": "nM"}, "values": [
      {"binder": "B1", "IC50 (assay not named in Table 7; preliminary C3b ELISA by paragraph 235)": 420000},
      {"binder": "Ac-[Trp(1-Me)]CVWQDWGAHRCT-NH2 (disulfide 2-12)", "note": "[Peptide II, Ac-me…-NH2]", "IC50 (assay not named in Table 7; preliminary C3b ELISA by paragraph 235)": 240000},
      {"binder": "B2", "IC50 (assay not named in Table 7; preliminary C3b ELISA by paragraph 235)": 330000},
      {"binder": "B3", "IC50 (assay not named in Table 7; preliminary C3b ELISA by paragraph 235)": 460000},
      {"binder": "B4", "IC50 (assay not named in Table 7; preliminary C3b ELISA by paragraph 235)": 470000}
    ]},
    {"target": "T1, human complement protein C3", "assay": "cell-based or functional assay", "remark": "another data set of the same source", "units": {"C3b ELISA IC50": "nM", "C5b-9 ELISA IC50": "nM", "Lysis IC50": "nM"}, "values": [
      {"binder": "Ac-ERICVWQDWG[Nal]HRCT-NH2 (disulfide 4-14; not fully specified; printed as Ac-ER-ICVWQDWG{Nal}HRCT-NH2)", "note": "[Peptide 4.1, Ac-ER-ICVWQDWG{Nal}HRCT-NH2]", "C3b ELISA IC50": 3000, "C5b-9 ELISA IC50": 1800, "Lysis IC50": 2300},
      {"binder": "Ac-NNLCVWQDWG[Nal]HRCT-NH2 (disulfide 4-14; not fully specified; printed as Ac-NN-LCVWQDWG{Nal}HRCT-NH2)", "note": "[Peptide 4.2, Ac-NN-LCVWQDWG{Nal}HRCT-NH2]", "C3b ELISA IC50": 2900, "C5b-9 ELISA IC50": 1900, "Lysis IC50": 2100},
      {"binder": "Ac-NRLCVWQDWG[Nal]HRCT-NH2 (disulfide 4-14; not fully specified; printed as Ac-NR-LCVWQDWG{Nal}HRCT-NH2)", "note": "[Peptide 4.3, Ac-NR-LCVWQDWG{Nal}HRCT-NH2]", "C3b ELISA IC50": 2000, "C5b-9 ELISA IC50": 1200, "Lysis IC50": 1200},
      {"binder": "Ac-RSICVWQDWG[Nal]HRCT-NH2 (disulfide 4-14; not fully specified; printed as Ac-RS-ICVWQDWG{Nal}HRCT-NH2)", "note": "[Peptide 4.4, Ac-RS-ICVWQDWG{Nal}HRCT-NH2]", "C3b ELISA IC50": 3100, "C5b-9 ELISA IC50": 2000, "Lysis IC50": 1800},
      {"binder": "Ac-ERICV[Nal]QDWG[Nal]HRCT-NH2 (disulfide 4-14; not fully specified; printed as Ac-ERICV{Nal}QDWG{Nal}HRCT-NH2)", "note": "[Peptide 4.5, Ac-ER-ICV{Nal}QDWG{Nal}HRCT-NH2]", "C3b ELISA IC50": 3800, "C5b-9 ELISA IC50": 2400, "Lysis IC50": 3000},
      {"binder": "Ac-NNLCV[Nal]QDWG[Nal]HRCT-NH2 (disulfide 4-14; not fully specified; printed as Ac-NNLCV{Nal}QDWG{Nal}HRCT-NH2)", "note": "[Peptide 4.6, Ac-NN-LCV{Nal}QDWG{Nal}HRCT-NH2]", "C3b ELISA IC50": 3900, "C5b-9 ELISA IC50": 2300, "Lysis IC50": 2200},
      {"binder": "Ac-NRLCV[Nal]QDWG[Nal]HRCT-NH2 (disulfide 4-14; not fully specified; printed as Ac-NRLCV{Nal}QDWG{Nal}HRCT-NH2)", "note": "[Peptide 4.7, Ac-NR-LCV{Nal}QDWG{Nal}HRCT-NH2]", "C3b ELISA IC50": 2300, "C5b-9 ELISA IC50": 1400, "Lysis IC50": 1300},
      {"binder": "Ac-RSICV[Nal]QDWG[Nal]HRCT-NH2 (disulfide 4-14; not fully specified; printed as Ac-RSICV{Nal}QDWG{Nal}HRCT-NH2)", "note": "[Peptide 4.8, Ac-RS-ICV{Nal}QDWG{Nal}HRCT-NH2]", "C3b ELISA IC50": 4100, "C5b-9 ELISA IC50": 2400, "Lysis IC50": 2800},
      {"binder": "Ac-ICV[Trp(1-Me)]QDWG[Nal]HRCT-NH2 (disulfide 2-12; not fully specified; printed as Ac-ICV{meW}QDWG{Nal}HRCT-NH2)", "note": "[Peptide 2.1, Ac-ICVmeWQDWG{Nal}HRCT-NH2]", "C3b ELISA IC50": 1400, "C5b-9 ELISA IC50": 900, "Lysis IC50": 900},
      {"binder": "Ac-ICVWQDWG[Nal]HRCT-NH2 (disulfide 2-12; not fully specified; printed as Ac-ICVWQDWG{Nal}HRCT-NH2)", "note": "[Peptide 2.2, Ac-ICVWQDWG{Nal}HRCT-NH2]", "C3b ELISA IC50": 2400, "C5b-9 ELISA IC50": 2000, "Lysis IC50": 1400},
      {"binder": "Ac-ICVWQDWG[Aal]HRCT-NH2 (disulfide 2-12; reading uncertain; also: printed as Ac-ICVWQDWG{Aal}HRCT-NH2)", "note": "[Peptide 2.4, Ac-ICVWQDWG{Aal}HRCT-NH2]", "C3b ELISA IC50": 900, "C5b-9 ELISA IC50": 800, "Lysis IC50": 700},
      {"binder": "Ac-ICVWQDWG[Sea]HRCT-NH2 (disulfide 2-12; reading uncertain; also: printed as Ac-ICVWQDWG{Sea}HRCT-NH2)", "note": "[Peptide 2.5, Ac-ICVWQDWG{Sea}HRCT-NH2]", "C3b ELISA IC50": 600, "C5b-9 ELISA IC50": 700, "Lysis IC50": 500},
      {"binder": "B5", "C3b ELISA IC50": 900, "C5b-9 ELISA IC50": 500, "Lysis IC50": 900},
      {"binder": "B6", "C3b ELISA IC50": 600, "C5b-9 ELISA IC50": 500, "Lysis IC50": 300},
      {"binder": "B7", "C3b ELISA IC50": 600, "C5b-9 ELISA IC50": 500, "Lysis IC50": 300},
      {"binder": "Ac-RSICVWQDWGAHRCT-NH2 (disulfide 4-14)", "note": "[Peptide 3.4, Ac-RS-ICVWQDWGAHRCT-NH2]", "C3b ELISA IC50": 700, "C5b-9 ELISA IC50": 600, "Lysis IC50": 300}
    ]}
  ]
}
